Patent US11988675B2, “Methods for quantifying frataxin activity” (Larimar Therapeutics, Inc., priority 2019, dated 2024)
Read-outs that look alike come from different tables or passages of the source.

How the values were obtained:
[1] = target: T1, FXN fusion protein (Homo sapiens, UniProt Q16595); assay: HQ assay in the presence of NADH or NADPH (FIG. 3, Panel B); type: biochemical; settings: added to the assay with Fe^3+
T1 sequence (Q16595 with tags, fused parts or gaps): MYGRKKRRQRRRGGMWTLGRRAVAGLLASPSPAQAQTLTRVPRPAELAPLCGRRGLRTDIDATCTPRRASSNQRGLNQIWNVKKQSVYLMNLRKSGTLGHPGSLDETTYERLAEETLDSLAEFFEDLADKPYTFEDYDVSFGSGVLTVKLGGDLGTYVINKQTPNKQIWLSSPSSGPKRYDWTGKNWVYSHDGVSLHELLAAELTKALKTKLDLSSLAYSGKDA
Protocol: Redox activity of the FXN fusion protein was also measured in the presence of NADPH and NADH.

[2] = test system: FDRA mouse model; assay: Treatment of an FDRA mouse model; type: in vivo; settings: data not shown
Source text: (§1) FXN fusion protein having the amino acid sequence of SEQ ID NO: 12 comprises a cell penetrating peptide, HIV-TAT (SEQ ID NO: 4), and a full length hFXN (SEQ ID NO: 1), linked through a linker at the N-terminus of the hFXN.

[3] = 10 μM FXN fusion protein, 5 μM HQ, 5 μM Fe(III) sulfate
Protocol: The goal of this experiment was to evaluate pH dependence of HQ-dependent superoxide generating activity of an exemplary FXN fusion protein. FXN fusion protein of SEQ ID NO: 12 was used in this experiment. Specifically, kinetics of superoxide generation by an exemplary FXN fusion protein was evaluated at pHs ranging from 7.0 to 9.0. Each reaction mixture contained 5 μM HQ, 5 μM Fe(III) sulfate, 0.05 μM H2DCF and 10 μM exemplary FXN fusion protein in 50 mM Tris-HCL at pH of 7.0, 7.4, 7.8, 8.0, 8.2, 8.5 and 9.0.
The assay plate was placed in the plate reader and the kinetic read began immediately after all assay ingredients were mixed together. The plate reader settings were as follows: 2-hour kinetic scan with a Fluorescent read (excitation 485/20, emission 528/25, and a gain of 50) every 5-minutes with a 10 second shake between reads. Maximum initial velocity (Vi) was determined for each well by measuring fastest change in arbitrary fluorescence unit (AFU) over 5 data points.

[4] = in the presence and absence of metal ions; FIG. 1
Protocol: Protocol for Hydroquinone (HQ) Reduction Assay
a. 1 ml of 1 mM H2DCFDA (in DMSO) is added to 20 mL of 0.01 M NaOH working solution to generate the activating solution. The solution is stirred for 30 minutes at room temperature in the dark.
b. 79 mL of 33 mM NaH2PO4 solution is added to the activating solution to yield a final concentration of 10 μM H2DCF.
b. Excitation and emission reading of the plate is performed every minute, or as required, with a spectrometer set for the following parameters: excitation at 485/20, emission at 528/20, optics from the top, a read height of 1 mm, and a gain of 50.
To each well add: • i. 10 μL of 20× Hydroquinone (to 20 μM final concentration) • ii. 10 μL of 20×Mn^2 (5 μM final concentration)
b. Tris Buffer Addition • i. FXN protein sample well: 168 μL • ii.
b. 10 μL of H2DCF (10 μM working solution) is added to every well (except the DCF standard curve) to arrive at a final concentration of 0.5 μM H2DCF.
b. […] Velocity calculated on 5 points; • 3. Relative fluorescence units (RFU) per minute. • ii. Vi generated from the fluorescence scanner is plotted on a scatter plot • 1. […]
c. […] The line should go through 0,0, and the slope recorded. […]
Generation of ROS, i.e., superoxide, was detected using an ROS detector compound, such as for example, 2′,7′-dichlorodihydrofluorescein (H2DCF), and was followed kinetically, as shown in Panel A of FIG. 1. […]

[5] = Source text: The goal of the first part of the experiment was to validate performance of the HQ assay at the conditions used for the HTS. To this end, the HQ assay was characterized by measuring statistical parameters, such as signal-to-background (S/B) ratio, Z′ factor (which is a measure of the statistical robustness of the assay readout), and intra- and inter-plate variability. To this end, two 96-well plates were each split into 9 sections: 4 sections in each plate contained an exemplary FXN fusion protein at the concentration of 10 μM (high control); 4 sections contained the exemplary FXN fusion protein at the concentration of 0.5 μM (low control); and 1 section contained only the assay mix without the FXN fusion protein (blank control).
H2DCF was activated by incubating in the dark 1 mL of 1 mM H2DCF-DA in 20 mL of 0.01 M NaOH for 30 minutes while stirring. Subsequently, 75 mL of 33 mM NaH2PO4 was added to the activation mixture to yield a final H2DCF concentration of 10 μM. This solution was stored at 4° C. and protected from light until use. The assay mix in each well contained 50 mM Tris-HCL (pH 8.0), 50 μM HQ, 1 μM MnCl2, 0.5 μM activated H2DCF and the exemplary FXN fusion protein at the concentration of 10 μM (high control), 0.5 μM (low control) and 0 μM (blank control). After the assay mix was added to the plate, the plate was immediately placed in the plate reader, and the kinetic read was initiated. The plate reader settings were as follows: 45-minute kinetic scan with a Fluorescent read (excitation 482/20, emission 530/25, and a gain of 50) every minute with a 3 second shake in between reads. Maximum initial velocity (Vi) was determined for each well by measuring the fastest change in arbitrary fluorescence unit (AFU) over 5 data points. The statistical parameters, such as signal-to-background (S/B) ratio, Z′ factor, and intra- and inter-plate variability were calculated to characterize the assay performance.

[6] = in the absence of Fe^3+; 10 μM FXN fusion protein, 10 μM HQ, 5 μM H2DCF
Protocol: In another experiment, the effect of the presence of Fe^3+ ions on the activity of an exemplary FXN fusion protein was studied. In this experiment, the kinetics of ROS generated over time was measured in assay mixtures containing 10 μM exemplary FXN fusion protein, 10 μM HQ, and 5 μM H2DCF. One assay mixture also contained 1 mM deferoxamine, an iron chelator.

[7] = Temperature stability study: HQ assay after one month storage; type: biochemical
Protocol: The goal of this experiment was to evaluate thermal stability of an exemplary FXN fusion protein by evaluating the activity of the FXN fusion protein after short-term storage (one month) at different temperatures.
(SPL1), 2-4° C. (SPL2) and 25° C. (SPL3), as compared to the DS control. […] (SPL1), 2-4° C. (SPL2) and 25° C. (SPL3), as compared to the DS control.

[8] = test system: FXN-deficient cell lines; assay: Genomic footprint of FXN-deficient cell lines before and after FXN fusion protein treatment; type: cell-based; settings: data not shown
Source text: as §1

[9] = Chemical stability study: HQ assay after chemical stress; type: biochemical
Protocol: The goal of this experiment was to evaluate stability to chemical stress of an exemplary FXN fusion protein by evaluating the activity of the exemplary FXN fusion protein after its exposure to chemical stressors that may trigger protein denaturation and/or degradation of the FXN fusion protein.
Briefly, study control was stored at 2-8° C. over the course of the study. Each treatment was conducted as follows:
i. Acid treatment: 1N HCl was added to the solution containing FXN fusion protein until a pH≤4 was reached. The sample was kept at 37° C. for 2 days, and then the buffer exchanged for the buffer of the DS formulation. The sample was stored at 2-8° for the remainder of the study.
ii. Alkaline treatment: 1M Tris base was added to the solution containing FXN fusion protein until a pH≥10 was reached. The sample was kept at 37° C. for 2 days, and then the buffer was exchanged for the buffer of the DS formulation. The sample was stored at 2-8° C.
iii. Acid and Base control: solution containing FXN fusion protein was stored at 37° C. for 2 days, and then stored at 2-8° C.
iv. Oxidation stress treatment: exemplary FXN fusion protein was incubated in the presence of 0.05% hydrogen peroxide at 37° C. for 2 hours and then stored at 2-8° C.
v. Oxidation control: exemplary FXN fusion protein was incubated at 37° C. for 2 hours and then stored at 2-8° C.
vi. Heat stress treatment: exemplary FXN fusion protein was incubated at 50° for 2 hours then stored at 2-8° C.
All samples were analyzed for appearance, pH, protein quantification (by A280), size-exclusion ultra-performance liquid chromatography (SE-UPLC), reversed-phase high-performance liquid chromatography (RP-HPLC), ion-exchange high-performance liquid chromatography (IE-HPLC), reduced capillary electrophoresis sodium dodecyl sulfate (rCE-SDS), non-reduced capillary electrophoresis sodium dodecyl sulfate (nrCE-SDS), and free thiol (data not shown). The concentration of FXN fusion protein was determined by Western blot, and redox activity was determined using the HQ assay as described above.

[10] = Drug substance (DS) control (stored at −80° C.)
[11] = Acid and alkaline control: 37° C. for 2 days
[12] = Acid stress: pH ≤4, at 37° C. for 2 days
[13] = Alkaline stress: pH ≥10, at 37° C. for 2 days
[14] = Heat stress: 50° C. for 2 hours
[15] = Oxidation control: 37° C. for 2 hours
[16] = Oxidation: 0.05% peroxide at 37° C. for 2 hours
[17] = Study control: 2-8° C. for 2 hours

## NC(=O)C1=CN([C@@H]2O[C@H](COP(=O)(O)OP(=O)(O)OC[C@H]3O[C@@H](n4cnc5c(N)ncnc54)[C@H](O)[C@@H]3O)[C@@H](O)[C@H]2O)C=CC1 [NADH]
[1]
  effect on ROS production / redox activity of the FXN fusion protein: did not affect the redox activity

## NC(=O)C1=CN([C@@H]2O[C@H](COP(=O)(O)OP(=O)(O)OC[C@H]3O[C@@H](n4cnc5c(N)ncnc54)[C@H](OP(=O)(O)O)[C@@H]3O)[C@@H](O)[C@H]2O)C=CC1 [NADPH]
[1]
  effect on ROS production / redox activity of the FXN fusion protein: significantly diminished ROS production

B1: FXN fusion protein: cell penetrating peptide HIV-TAT linked through a linker to the N-terminus of full length hFXN; amino acid sequence of SEQ ID NO: 12 (protein)
chain: T1 sequence (Q16595 with tags, fused parts or gaps)
[2]
  cardiomyopathic phenotype, for example cardiac contractility: measurable improvement in the cardiomyopathic phenotype
[3]; pH 7.0 to 9.0
  pH at which activity peaks: about 8.5
[3]; pH of 7.4 or lower
  superoxide-generating activity (Vi): almost no activity
[4]
  enzymatic activity, as measured by ROS generation over time: possesses enzymatic activity
[5]; Plate 1, High control (10 µM FXN fusion protein)
  Mean Vi: 5390.0
[5]; Plate 1, Low control (0.5 μM FXN fusion protein)
  Mean Vi: 471.0
[5]; Plate 2, High control (10 μM FXN fusion protein)
  Mean Vi: 4995.1
[5]; Plate 2, Low control (0.5 μM FXN fusion protein)
  Mean Vi: 635.5
[5]; Plates 1 and 2 combined, High control (10 μM FXN fusion protein)
  Mean Vi: 5192.5
[5]; Plates 1 and 2 combined, Low control (0.5 μM FXN fusion protein)
  Mean Vi: 553.2
[6]
  lag time to ROS generation: approximately 2 hours
[7]; [10]
  Result (% activity): 100.2%
  Vi: (1126 Vi units)
[7]; SPL1: −60° C. for 1 month
  Result (% activity): 100%
  Vi: (1123 Vi units)
[7]; SPL2: 2-4° C. for 1 month
  Result (% activity): 66.4%
  Vi: (746 Vi units)
[7]; SPL3: 25° C. for 1 month
  Result (% activity): 23.4%
  Vi: (263 Vi units)
[7]; storage in conditions other than −60° C. for one month
  activity in the HQ Assay after storage: decreased activity
[8]
  expression of a set of genes before and after treatment: significant difference in the expression of a set of genes
[9]; [11]
  Result (% activity): 79.7%
  Vi: (1,730 Vi units)
[9]; [12]
  Result (% activity): 23.7%
  Vi: (689 Vi units)
[9]; [13]
  Result (% activity): 0.02%
  Vi: (0.7 Vi units)
[9]; [14]
  Result (% activity): 96.9%
  Vi: (2,820 Vi units)
[9]; [15]
  Result (% activity): 59.5%
  Vi: (1,730 Vi units)
[9]; [16]
  Result (% activity): 2.2%
  Vi: (63 Vi units)
[9]; [17]
  Result (% activity): 100%
  Vi: (2,908 Vi units)
[9]; acid stress
  stability of HQ activity to acid stress: partly susceptible
[9]; alkaline stress
  stability of HQ activity to alkaline stress: susceptible
[9]; heat stress applied for 2 hours
  stability of HQ activity to heat stress: to a large extent, was resistant to heat stress
[9]; oxidation stress
  stability of HQ activity to oxidation stress: susceptible
